What was measured:
[1] = target: T1, human FOLR1 extracellular domain linked to His tag (human, UniProt P15328 25-233, limits assumed); test: BLI, global 1:1 fit (7.82 nM row)
T1 construct: extracellular domain; It may be the same product as m13; also called Hu-FRα; Hu-Ag; not shown: His tag

[2] = target: T2, cynomolgus monkey FOLR1 extracellular domain linked to His tag (cynomolgus monkey, UniProt A0A2K5U044 25-233); test: BLI, global 1:1 fit (7.82 nM row)
T2 construct: extracellular domain; Antigen in solution in BLI; It may be the same product as m14; also called Cyno-Ag; not shown: His tag

[3] = target: T1, human FOLR1 extracellular domain linked …; test: BLI, global 1:1 fit (31.3 nM row)
[4] = target: T2, cynomolgus monkey FOLR1 extracellular …; test: BLI, global 1:1 fit (31.3 nM row)
[5] = target: T1, human FOLR1 extracellular domain linked …; test: BLI, Ag 62.5 nM over Ab on anti-hIgG Fc tip
[6] = target: T2, cynomolgus monkey FOLR1 extracellular …; test: BLI, Ag 62.5 nM over Ab on anti-hIgG Fc tip
[7] = target: T1, human FOLR1 extracellular domain linked …; test: BLI, global 1:1 fit (250 nM row)
[8] = target: T2, cynomolgus monkey FOLR1 extracellular …; test: BLI, global 1:1 fit (250 nM row)
[9] = target: T3, human FOLR2 extracellular domain linked to His tag (human, UniProt P14207 17-230, limits assumed); test: BLI, Ag 62.5 nM over Ab on anti-hIgG Fc tip
T3 construct: extracellular domain; Antigen in solution in BLI; also called Hu-FRb; not shown: His tag

[10] = target: T1, human FOLR1 extracellular domain linked …; test: BLI, Ag 62.5 nM over Ab on anti-hIgG Fc tip; remark: listed apart in the source
[11] = target: T1, human FOLR1 extracellular domain linked …; test: BLI, Ag 31.3 nM over Ab on anti-hIgG Fc tip
[12] = target: T2, cynomolgus monkey FOLR1 extracellular …; test: BLI, Ag 31.3 nM over Ab on anti-hIgG Fc tip
[13] = target: T4, mouse FOLR1 extracellular domain linked to His tag (mouse, UniProt P35846 25-232, limits assumed); test: BLI, global 1:1 fit (250 nM row); only the 500 nM response quantifiable
T4 construct: extracellular domain; Antigen in solution in BLI; also called Mouse-Ag; not shown: His tag

[14] = target: T5, rat FOLR1 extracellular domain linked to His tag (rat); test: BLI, global 1:1 fit (15.6 nM row); all responses below quantification
T5 construct: extracellular domain; Antigen in solution in BLI; also called Rat-Ag

[15] = target: T5, rat FOLR1 extracellular domain linked …; test: BLI, Ag 15.6 nM; * = below range of quantification
[16] = target: T6, human FOLR3 extracellular domain linked to His tag (human, UniProt P41439 23-245, limits assumed); test: BLI, global 1:1 fit (125 nM row); all responses below quantification
T6 construct: extracellular domain; Antigen in solution in BLI; also called Hu-FRg; not shown: His tag

[17] = target: T5, rat FOLR1 extracellular domain linked …; test: BLI, Ag 125 nM; * = below range of quantification
[18] = target: T3, human FOLR2 extracellular domain linked …; test: BLI, Ag 125 nM over Ab on anti-hIgG Fc tip
[19] = target: T1, human FOLR1 extracellular domain linked …; test: BLI, Ag 125 nM over Ab on anti-hIgG Fc tip
[20] = target: T4, mouse FOLR1 extracellular domain linked …; test: BLI, global 1:1 fit (7.82 nM row); only the 500 nM response quantifiable
[21] = target: T4, mouse FOLR1 extracellular domain linked …; test: BLI, global 1:1 fit (15.6 nM row); only the 500 nM response quantifiable
[22] = target: T5, rat FOLR1 extracellular domain linked …; test: BLI, Ag 31.3 nM; * = below range of quantification
[23] = target: T3, human FOLR2 extracellular domain linked …; test: BLI, Ag 7.82 nM; * = below range of quantification
[24] = target: T6, human FOLR3 extracellular domain linked …; test: BLI, Ag 7.82 nM; * = below range of quantification

T2 sequence (A0A2K5U044 entry or part of it): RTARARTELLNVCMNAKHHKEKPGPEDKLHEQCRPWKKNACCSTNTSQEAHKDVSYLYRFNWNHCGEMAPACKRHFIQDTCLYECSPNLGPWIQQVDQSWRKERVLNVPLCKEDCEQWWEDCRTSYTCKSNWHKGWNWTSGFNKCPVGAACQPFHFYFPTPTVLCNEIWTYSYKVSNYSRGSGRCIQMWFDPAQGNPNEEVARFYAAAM
T1 sequence (P15328 25-233 limits assumed): as the sequence (A0A2K5U044 entry or part of it) above, with T2I, R4W, K37R, P146A, Y171H counted along it
T6 sequence (P41439 23-245 limits assumed): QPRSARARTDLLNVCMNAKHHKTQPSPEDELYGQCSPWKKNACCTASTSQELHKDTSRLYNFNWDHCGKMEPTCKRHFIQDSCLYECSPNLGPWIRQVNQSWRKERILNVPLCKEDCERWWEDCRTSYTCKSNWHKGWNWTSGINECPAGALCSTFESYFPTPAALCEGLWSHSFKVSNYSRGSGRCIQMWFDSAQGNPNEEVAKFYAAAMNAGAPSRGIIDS
T3 sequence (P14207 17-230 limits assumed): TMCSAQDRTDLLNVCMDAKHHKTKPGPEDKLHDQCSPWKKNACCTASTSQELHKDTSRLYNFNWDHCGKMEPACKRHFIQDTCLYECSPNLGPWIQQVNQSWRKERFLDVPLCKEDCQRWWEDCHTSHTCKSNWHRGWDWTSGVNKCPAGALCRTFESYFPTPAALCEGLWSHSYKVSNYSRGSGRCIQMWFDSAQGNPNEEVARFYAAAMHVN
T4 sequence (P35846 25-232 limits assumed): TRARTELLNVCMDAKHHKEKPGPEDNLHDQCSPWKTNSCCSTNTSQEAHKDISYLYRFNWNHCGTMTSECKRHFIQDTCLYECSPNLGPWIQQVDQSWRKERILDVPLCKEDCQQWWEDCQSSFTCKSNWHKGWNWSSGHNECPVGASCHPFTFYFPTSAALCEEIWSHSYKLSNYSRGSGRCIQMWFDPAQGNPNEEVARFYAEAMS

B1: F131 (antibody, V domains shown)
VH: EVQLLESGGGVVQPGRSLRLSCAASGFTFSSYGMHWVRQAPGKGLEWVAVISYDGSNKYYADSVKGRFTISRANSKNTLYLQMNSLRAEDTAVYYCARPRAYYGAYGSSFDYWGQGTQVTVSS
VL: EIVMTQSPSSVSASVGDRVAITCRASQGISSWLAWYQQKPGKAPKLLIYAASSLQSGVPSRFSGSGSGTDFTLTISSLQPEDFATYYCQQSYSTPLTFGGGTKVDIK
notes: also called clone F131; F131 mAb
[1]
  Kd: 1.53 nM
  koff: 0.000338 s⁻¹
  kon: 221000 M⁻¹ s⁻¹
[2]
  Kd: 8.15 nM
  koff: 0.00157 s⁻¹
  kon: 193000 M⁻¹ s⁻¹
[3]
  Kd: 1.53 nM
  koff: 0.000338 s⁻¹
  kon: 221000 M⁻¹ s⁻¹
[4]
  Kd: 8.15 nM
  koff: 0.00157 s⁻¹
  kon: 193000 M⁻¹ s⁻¹
[5]
  Response: 0.12
[6]
  Response: 0.14
[7]
  Kd: 1.53 nM
  koff: 0.000338 s⁻¹
  kon: 221000 M⁻¹ s⁻¹
[8]
  Kd: 8.15 nM
  koff: 0.00157 s⁻¹
  kon: 193000 M⁻¹ s⁻¹
[9]
  Response: 0.0356
[10]
  Response: 0.117
[11]
  Response: 0.0869
[12]
  Response: 0.084
[13]
  Kd: 2960 nM
  koff: 0.301 s⁻¹
  kon: 102000 M⁻¹ s⁻¹
[14]
  koff: 1.03 s⁻¹
  kon: 5490 M⁻¹ s⁻¹
[15]
  Response: -0.00395
[16]
  koff: 0.217 s⁻¹
  kon: 1660 M⁻¹ s⁻¹
[17]
  Response: -0.00477
[18]
  Response: 0.0188
[19]
  Response: 0.144
[20]
  Kd: 2960 nM
  koff: 0.301 s⁻¹
  kon: 102000 M⁻¹ s⁻¹
[21]
  Kd: 2960 nM
  koff: 0.301 s⁻¹
  kon: 102000 M⁻¹ s⁻¹
[22]
  Response: -0.00532
[23]
  Response: 0.0011
[24]
  Response: 0.00103

B2: F131-LD038 (antibody, V domains shown)
VH: B1 VH
VL: B1 VL
modifications: drug-linker LD038 (PB038, maleimide-PEG unit-Val-Cit-PAB-exatecan) on cysteines freed by TCEP reduction; positions not given
notes: Antibody-drug conjugate of F131 (IgG1) with LD038; also called anti-huFOLR-1 conjugate F131-LD038; F131-038
[1]
  Kd: 4.8 nM
  koff: 0.00107 s⁻¹
  kon: 224000 M⁻¹ s⁻¹
[2]
  Kd: 8.82 nM
  koff: 0.0016 s⁻¹
  kon: 181000 M⁻¹ s⁻¹
[3]
  Kd: 4.8 nM
  koff: 0.00107 s⁻¹
  kon: 224000 M⁻¹ s⁻¹
[4]
  Kd: 8.82 nM
  koff: 0.0016 s⁻¹
  kon: 181000 M⁻¹ s⁻¹
[5]
  Response: 0.129
[6]
  Response: 0.121
[7]
  Kd: 4.8 nM
  koff: 0.00107 s⁻¹
  kon: 224000 M⁻¹ s⁻¹
[8]
  Kd: 8.82 nM
  koff: 0.0016 s⁻¹
  kon: 181000 M⁻¹ s⁻¹
[9]
  Response: 0.0379
[10]
  Response: 0.138
[11]
  Response: 0.0866
[12]
  Response: 0.0702
[13]
  Kd: 2870 nM
  koff: 0.266 s⁻¹
  kon: 92600 M⁻¹ s⁻¹
[14]
  koff: 0.224 s⁻¹
  kon: 2.64e+06 M⁻¹ s⁻¹
[15]
  Response: -0.00212
[16]
  koff: 0.233 s⁻¹
[17]
  Response: 0.0007
[18]
  Response: 0.0161
[19]
  Response: 0.176
[20]
  Kd: 2870 nM
  koff: 0.266 s⁻¹
  kon: 92600 M⁻¹ s⁻¹
[21]
  Kd: 2870 nM
  koff: 0.266 s⁻¹
  kon: 92600 M⁻¹ s⁻¹
[22]
  Response: -0.00454
[23]
  Response: 0.002
[24]
  Response: 0.0004

Source: patent publication US20240245796A1 (PROFOUNDBIO US, published 2024)
